Measured values taken from patent US11225644B2, “Cell culture method, cell aggregates, cell aggregation control agent, and medium” (THE UNIVERSITY OF TOKYO, priority 2015, dated 2022).

B1: E-cadherin-Fc: fusion protein of mouse E-cadherin extracellular domain and mutated IgG1-Fc domain (T252M/T254S) (protein)
chain: DWVIPPISCPENEKGEFPKNLVQIKSNRDKETKVFYSITGQGADKPPVGVFIIERETGWLKVTQPLDREAIAKYILYSHAVSSNGEAVEDPMEIVITVTDQNDNRPEFTQPVFEGFVAEGAVPGTSVMKVSATDADDDVNTYNAAIAYTIVSQDPELPHKNMFTVNRDTGVISVLTSGLDRESYPTYTLVVQAADLQGEGLSTTAKAVITVKDINDNAPVFNPSTYQGQVPENEVNARIATLKVTDDDAPNTPAWKAVYTVVNDPDQQFVVVTDPTTNDGILKTAKGLDFEAKQQYILHVRVENEEPFEGSLVPSTATVTVDVVDVNEAPIFMPAERRVEVPEDFGVGQEITSYTAREPDTFMDQKITYRIWRDTANWLEINPETGAIFTRAEMDREDAEHVKNSTYVALIIATDDGSPIATGTGTLLLVLLDVNDNAPIPEPRNMQFCQRNPQPHIITILDPDLPPNTSPFTAELTHGASVNWTIEYNDAAQESLILQPRKDLEIGEYKIHLKLADNQNKDQVTTLDVHVCDCEGTVNNCMKAGIVAAGLQV
modifications: left off: a dimerising Fc or GST
B2: recombinant E-cadherin: recombinant E-cadherin (hRP-0339, manufactured by LD Biopharma) (protein, UniProt P12830 155-882, looked up)
Cadherin-1: DWVIPPISCPENEKGPFPKNLVQIKSNKDKEGKVFYSITGQGADTPPVGVFIIERETGWLKVTEPLDRERIATYTLFSHAVSSNGNAVEDPMEILITVTDQNDNKPEFTQEVFKGSVMEGALPGTSVMEVTATDADDDVNTYNAAIAYTILSQDPELPDKNMFTINRNTGVISVVTTGLDRESFPTYTLVVQAADLQGEGLSTTATAVITVTDTNDNPPIFNPTTYKGQVPENEANVVITTLKVTDADAPNTPAWEAVYTILNDDGGQFVVTTNPVNNDGILKTAKGLDFEAKQQYILHVAVTNVVPFEVSLTTSTATVTVDVLDVNEAPIFVPPEKRVEVSEDFGVGQEITSYTAQEPDTFMEQKITYRIWRDTANWLEINPDTGAISTRAELDREDFEHVKNSTYTALIIATDNGSPVATGTGTLLLILSDVNDNAPIPEPRTIFFCERNPKPQVINIIDADLPPNTSPFTAELTHGASANWTIQYNDPTQESIILKPKMALEVGDYKINLKLMDNQNKDQVTTLEVSVCDCEGAAGVCRKAQPVEAGLQIPAILGILGGILALLILILLLLLFLRRRAVVKEPLLPPEDDTRDNVYYYDEEGGGEEDQDFDLSQLHRGLDARPEVTRNDVAPTLMSVPRYLPRPANPDEIGNFIDENLKAADTDPTAPPYDSLLVFDYEGSGSEAASLSSLNSSESDKDQDYDYLNEWGNRFKKLADMYGGGEDD

Assays:
Assay type in all cases: cell-based, human
hiPS cells (TkDN4-M) [1] = assay: Observation of cell aggregates in rotation suspension culture in Essential 8 (Example 3); settings: Day 5 of the culture, Essential 8, E-cadherin-Fc 50 or 100 μg/ml for first 48 hours, 100 rpm
Procedure: (§1) To a 12-well plate subjected to low-cell-adhesion treatment, 1 mL of Essential 8® was added, and hiPS cells (TkDN4-M, Stem Cell Bank, The University of Tokyo) (2×10^5 cells/ml) provided in advance and, as a substance that inhibits a cell adhesion molecule(s) of the hiPS cells, E-cadherin-Fc (50 μg/ml) were added at the same time, followed by performing rotation culture at a speed of 100 rpm for 5 days. On Day 2 of the culture and thereafter (from 48 hours after the beginning of the culture), medium replacement was carried out every day with a medium to which E-cadherin-Fc was not added.
Aggregates were obtained in the same manner as in […] except that the concentration of E-cadherin-Fc in Example 3-1 was 100 μg/ml.
Morphology of cell aggregates in Examples 3-1 and 3-2, and Comparative Example 3-1 on Day 2 and Day 5 of the culture was observed using a phase-contrast microscope (product name, DM IRB; manufactured by LEICA). From the results shown in FIGS. 6 and 7, it can be seen that the size of the aggregates can be controlled also in cases where Essential 8® is used as the medium. On Day 5 of the culture, in the cases where E-cadherin-Fc was added, the size of the aggregates was larger than that on Day 2 of the culture, and the diameter of the aggregates was controlled at about 500 μm.

hiPS cells (TkDN4-M) [2] = assay: Measurement of number of cells, Essential 8 culture (Example 3); settings: Examples 3-1 and 3-2 (50, 100 μg/ml) vs Comparative Example 3-1, Essential 8, after 5 days, FIG. 9
Procedure: (§2) After completion of the culture, the cells were dispersed into single cells using TrypLE® select, and the number of live cells was counted using trypan blue (manufactured by Life Technologies) and an eosinophil counter (manufactured by Tatai).
as §1

hiPS cells (TkDN4-M) [3] = assay: Measurement of live cell number after culture, mTeSR1 (Example 1); settings: Day 5 of the culture
Procedure: (§3) […] The sizes of the aggregates 48 hours after the E-cadherin-Fc treatment were within the range of 300 to 700 μm. Subsequently, medium replacement was carried out, and culture was carried out for three days under the same conditions as described above except that E-cadherin-Fc was not added, to obtain aggregates. The sizes of the aggregates were within the range of 500 to 1000 μm.
as §2

hiPS cells (TkDN4-M) [4] = assay: Diameters of cell aggregates in rotation suspension culture in mTeSR1 (Example 1)
Procedure: As pluripotent stem cells, hiPS cells (TkDN4-M, Stem Cell Bank, The University of Tokyo) were used. These cells were plated on the above culture plate at a density of 100,000 to 400,000 cells/well, and cultured for four days. The culture was carried out using, as a culture medium, 2 mL/well of mTeSR®1 (manufactured by StemCell Technologies). During the culture, medium replacement was carried out every day except for the day after the plating.
For detachment and collection of cells, TrypLE® select (manufactured by Life Technologies), which is a trypsin-like enzyme, was used. After removal of the culture liquid, TrypLE® select was added to the wells at 1 mL/well, and the plate was incubated at 37° C. for 2 to 5 minutes. Thereafter, TrypLE® select was removed, and mTeSR®1 supplemented with 10 μM Y-27632, which is a ROCK inhibitor, was added to the wells at 2 mL/well, followed by pipetting using a 1000-μL micropipette to detach the cells. The collected cell suspension was passed through a 40-μm cell strainer (BD) to collect the cells as single cells and/or microaggregates, to thereby obtain cells to be applied to suspension culture.
In the following Examples and Comparative Examples, morphology and sizes of cell aggregates during the culture period were observed and measured using a phase-contrast microscope (product name, DM IRB; manufactured by LEICA). […]

hiPS cells (TkDN4-M) [5] = assay: Observation of cell aggregates after 1 day of rotation culture (Example 2); settings: 10 μg/ml, FIG. 5; for uniformity of aggregate diameters compared to Comparative Example 2-1: mTeSR1, rotation culture 90 rpm for 1 day
Procedure: To a 12-well plate subjected to low-cell-adhesion treatment, 1 mL of mTeSR®1 was added, and hiPS cells (TkDN4-M, Stem Cell Bank, The University of Tokyo) ([…] cells/ml) provided in advance and, as a substance that inhibits a cell adhesion molecule(s) of the hiPS cells, recombinant E-cadherin (hRP-0339, manufactured by LD Biopharma) (10 μg/ml) were added at the same time, followed by performing rotation culture at a speed of 90 rpm for 1 day.
Aggregates were obtained in the same manner as in Example 2-1 except that a neutralizing antibody against E-cadherin (E-cadherin antibody MAB3199Z, manufactured by Millipore) ([…]) was used as the substance that inhibits a cell adhesion molecule(s) of the hiPS cells in Example 2-2.
Aggregates were obtained in the same manner as in Example 2-1 except that E-cadherin-Fc (10 μg/ml) was used as the substance that inhibits a cell adhesion molecule(s) of the hiPS cells in Example 2-3.
Morphology of cell aggregates in Examples 2-1 to 2-3 and Comparative Example 2-1 was observed using a phase-contrast microscope (product name. DM IRB; manufactured by LEICA).

hiPS cells (TkDN4-M) [6] = assay: Measurement of glucose consumption, mTeSR1 culture (Example 1); settings: Day 5 of the culture
Procedure: as §3
(§4) During the whole culture period, 300 μL of the culture liquid was collected upon replacement of the medium, and the glucose concentration was analyzed using an enzyme-electrode type bioanalyzer (YS12950) to calculate changes in the glucose consumption.

hiPS cells (TkDN4-M) [7] = assay: Measurement of glucose consumption, Essential 8 culture (Example 3); settings: Examples 3-1 and 3-2 (50, 100 μg/ml) vs Comparative Example 3-1, Essential 8, FIG. 8
Procedure: as §4, §1

| Molecule | diameter of the aggregates (hiPS cells (TkDN4-M) [1]) | number of cells (hiPS cells (TkDN4-M) [2]) | number of cells compared to Comparative Example 1-1 (hiPS cells (TkDN4-M) [3]; Example 1-2, 10 μg/ml) | number of cells compared to Comparative Example 1-1 (hiPS cells (TkDN4-M) [3]; Example 1-3, 20 μg/ml) | number of cells compared to Comparative Example 1-1 (hiPS cells (TkDN4-M) [3]; Example 1-4, 50 μg/ml) | number of cells compared to Comparative Example 1-1 (hiPS cells (TkDN4-M) [3]; Example 1-5, 100 μg/ml) | morphology of cell aggregates compared to Comparative Example 1-1 (hiPS cells (TkDN4-M) [4]; 5, 10, 20, 50 and 100 μg/ml, Day 2 of the culture, FIG. 2) | suppression of excessive aggregation and formation of uniform aggregates (hiPS cells (TkDN4-M) [4]; concentration within 10 to 50 μg/ml, Day 2, simple rotation culture) | uniformity of aggregate diameters compared to Comparative Example 2-1 (hiPS cells (TkDN4-M) [5]) | aggregates compared to recombinant E-cadherin or neutralizing antibody against E-cadherin (hiPS cells (TkDN4-M) [5]; rotation culture for 1 day) | glucose consumption compared to Comparative Example 1-1 (hiPS cells (TkDN4-M) [6]; Example 1-1, 5 μg/ml) | glucose consumption compared to Comparative Example 1-1 (hiPS cells (TkDN4-M) [6]; Example 1-2, 10 μg/ml) [times] | glucose consumption compared to Comparative Example 1-1 (hiPS cells (TkDN4-M) [6]; Example 1-3, 20 μg/ml) [times] | glucose consumption compared to Comparative Example 1-1 (hiPS cells (TkDN4-M) [6]; Example 1-4, 50 μg/ml) [times] | glucose consumption compared to Comparative Example 1-1 (hiPS cells (TkDN4-M) [6]; Example 1-5, 100 μg/ml) [times] | glucose consumption (hiPS cells (TkDN4-M) [7]) |
| --- | --- | --- | --- | --- | --- | --- | --- | --- | --- | --- | --- | --- | --- | --- | --- | --- |
| B1 | about 500 μm | excellent effect | about 1.8 times | about 2.5 times | about 3 times | about 2.3 times | better-controlled sizes | effective | more uniformly controlled diameters | larger aggregates having more uniform shapes | about twice | 2 | 2.5 | 2.5 | 2 | excellent effect |
| B2 | – | – | – | – | – | – | – | – | more uniformly controlled diameters | – | – | – | – | – | – | – |
